Assays:
[1] = target: SARS-CoV-2 S protein (strain BetaCoV/Wuhan-Hu-1/2019) expressed on transfected cells (SARS-CoV-2 (Wuhan-Hu-1), UniProt P0DTC2 14-1273); assay: flow cytometry, B cell supernatant on S-transfected ExpiCHO cells
[2] = target: SARS-CoV-2 RBD with a Strep Tag II (SARS-CoV-2, UniProt P0DTC2 331-550); assay: BLI (Octet), RBD-Strep Tag II captured, antibody from B cell supernatant
[3] = target: SARS-CoV-2 RBD (residues 331-550 of spike from BetaCoV/Wuhan-Hu-1/2019, produced in house in Expi-CHO cells) (SARS-CoV-2 (Wuhan-Hu-1), UniProt P0DTC2 331-550); assay: BLI (Octet), antibody on protein A sensors, RBD in solution
[4] = target: SARS-CoV-1 RBD (Sino Biological) (SARS-CoV-1, UniProt P59594 306-527); assay: as above
[5] = target: His-tagged RBD of SARS-CoV-2 (SARS-CoV-2 (Wuhan-Hu-1), UniProt P0DTC2 331-550); assay: BLI (Octet), His-tagged RBD on anti-HIS sensors, antibody in solution
[6] = target: SARS-CoV-2 Spike protein on pseudotyped virus (SARS-CoV-2 (Wuhan-Hu-1), UniProt P0DTC2 14-1273); assay: cell-based or functional assay

B1: SARS-CoV-2 S302 (antibody, V domains shown)
VH: QVQLVESGGGVVQPGRSLRLSCAASGFTFSSYGMHWVRQAPGKGLEWVAVISYDGSNKYYADSVKGRFTISRDNSKNTLYLQMNSLRAEDTAVYYCAKDISSGWDRVFDYWGQGTLVTVSS
VL: EILLTQSPGTLSLSPGERATLSCRTSQSVGSSYLAWYQQKPGQAPRLLIYAASSRAIGIPDRFSGSGSGTDFTLTISRLEPEDFAVYYCQQYGSSPWTFGQGTKVEIK
binding result [1]: binds

B2: SARS-CoV-2 S303-v1 (antibody, V domains shown)
VH: EVQLVESGGGLVKPGGSLRLSCAASGFTFLTYSMNWVRQTPGKRLQWVSAISGSGGATYYADSVKGRFTISRDNSKNTLYLQMNTVTADDTAIYFCARERDDIFPMGLNAFDIWGQGAMVIVSS
VL: DIQMTQSPSTLSASVGDRVTITCRASQSISNWLAWYQQKPGKAPKLLIYKASSLESGVPSRFSGSGSGTEFTLTISSLQPDDSATYYCQQYDTYSWTFGQGTKVEIK
binding result [1]: binds | binding result [2]: binds

B3: S303 rIgG1 (antibody, V domains shown)
VH: B2 VH
VL: B2 VL
binding result [3]: binds | binding result [4]: binds | binding result [5]: binds

B4: S304 rIgG1 (antibody, V domains shown)
VH: EVQLVESGGGLVQPGGSLRLSCAASGFTFSSYDMHWVRQTTGKGLEWVSTIGTAGDTYYPDSVKGRFTISREDAKNSLYLQMNSLRAGDTAVYYCARGDSSGYYYYFDYWGQGTLLTVSS
VL: DIQMTQSPSSLSAAVGDRVTITCRASQSIGSYLNWYQQKPGKAPKLLIYAASSLQSGVPSRFSGSGSGTDFTLTISSLQPEDFAIYYCQQSYVSPTYTFGPGTKVDIK
IC50, neutralization of SARS-CoV-2pp on DBT-ACE2 cells [6]: ~17 µg/mL | binding result [4]: binds

B5: SARS-CoV-2 S308-v1 (antibody, V domains shown)
VH: QVQLVESGGGVVQPGRSLRLSCAASRFTFSSYGMHWVRQAPGKGLEWVAVIWHDGNNKHYGDSVKGRVTISRDNSKNTLYLQMTSLRAEDTAVYYCARAVTTFKGSGRARMRGMDVWGQGTTVTVSS
VL: DIQLTQSPSFLSASVGDRVTITCRASQGINTYLAWYQQKPGKAPKLLIYAASTLQSGVPSRFSGSGSGTEFTLTISSLQPEDFATYYCQHLDTYPFTFGPGTKVDIK
binding result [1]: binds

B6: S315 rIgG1-LS (antibody, V domains shown)
VH: EVQLVESGGGLVQPGGSLRLSCAASGFTFSNYWMTWVRQAPGKGLEWVANIKQDGSEKYYVDSVKGRFTISRDNAKNSLYLQMNSLRAEDTAVYYCARDLWWNDQAHYYGMDVWGQGTTVTVSS
VL: SYELTQPPSVSVSPGQTARITCSGDAFPNQYAYWYQQKPGQAPVMLIYKDSERPSGIPERFFGSSSGTTVTLTIRGVQAEDEADYYCQSADSSGTVFGGGTKLTVL
IC50, neutralization of SARS-CoV-2pp on DBT-ACE2 cells (further assay) [6]: 25.1 µg/mL

Source: US20250263467A1 (VIR BIOTECHNOLOGY, published 2025)
